Assay results taken from the supplement of paper PMC9233669.
This sample holds only a part of the variants without activity.

Experiments:
[1] = tested on: biotinyl-Phe-oxazolone; assay: self-aminoacylation, catalytic enhancement (BFO) (fold over background); higher = more active; k-Seq, kA / k0A0; sequences stand for … in GGGAAUGGAUCCACAUCUACGAAUUC…UUCACUGCAGACUUGACGAAGCUG
Outline: (§1)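 The uncatalyzed rate is the low-activity peak of a bimodal Gaussian fit, and catalytic enhancement is median kA divided by it. The kA values came from pseudo-first-order fits, with 1000 bootstraps, of per-sequence fraction reacted measured by streptavidin capture, triplicate qPCR and Illumina sequencing. Mutagenized RNA pools with a 21-nt variable region (0.43 μM) were reacted with each biotinyl-aminoacyl-oxazolone at 2–1250 μM in 50 μL HEPES/NaCl/KCl/MgCl2/CaCl2 buffer with 5% acetonitrile, pH 6.9–7.0, for 90 minutes at room temperature.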

[2] = tested on: biotinyl-Ile-oxazolone; assay: self-aminoacylation, catalytic enhancement (BIO) (fold over background); higher = more active; k-Seq, kA / k0A0; sequences stand for … in GGGAAUGGAUCCACAUCUACGAAUUC…UUCACUGCAGACUUGACGAAGCUG
Outline: as §1

[3] = tested on: biotinyl-Met-oxazolone; assay: self-aminoacylation, catalytic enhancement (BMO) (fold over background); higher = more active; k-Seq, kA / k0A0; sequences stand for … in GGGAAUGGAUCCACAUCUACGAAUUC…UUCACUGCAGACUUGACGAAGCUG
Outline: as §1

[4] = tested on: biotinyl-Val-oxazolone; assay: self-aminoacylation, catalytic enhancement (BVO) (fold over background); higher = more active; k-Seq, kA / k0A0; sequences stand for … in GGGAAUGGAUCCACAUCUACGAAUUC…UUCACUGCAGACUUGACGAAGCUG
Outline: as §1

[5] = tested on: biotinyl-Leu-oxazolone; assay: self-aminoacylation, catalytic enhancement (BLO) (fold over background); higher = more active; k-Seq, kA / k0A0; sequences stand for … in GGGAAUGGAUCCACAUCUACGAAUUC…UUCACUGCAGACUUGACGAAGCUG
Outline: as §1

[6] = tested on: biotinyl-Trp-oxazolone; assay: self-aminoacylation, catalytic enhancement (BWO) (fold over background); higher = more active; k-Seq, kA / k0A0; sequences stand for … in GGGAAUGGAUCCACAUCUACGAAUUC…UUCACUGCAGACUUGACGAAGCUG
Outline: as §1

Sequence	self-aminoacylation [1]	self-aminoacylation [2]	self-aminoacylation [3]	self-aminoacylation [4]	self-aminoacylation [5]	self-aminoacylation [6]
AUUACCCUAUUCAUCGAGUGA [Fam2.1 aminoacylation ribozyme variant]	17.3	2.37	4.25	2.66	4.15	6.86
AUUACCCUCAUCAUCGAGUGA [Fam2.1 aminoacylation ribozyme variant]	74.1	4.69	10.5	5.02	10.7	11.9
AUUACCCUCGCCAUCGAGUGA [Fam2.1 aminoacylation ribozyme variant]	41.1	3.71	6.67	3.97	7.31	8.23
AUUACCCUCGUCAUCGAGUGU [Fam2.1 aminoacylation ribozyme variant]	1.56	1.34	1.88	1.4	2	1.49
AUUACCCUGACCAUCGAGUGA [Fam2.1 aminoacylation ribozyme variant]	8.94	3.01	4.2	2.95	4.95	5.06
AUUACCCUGAGCAUCGAGUGA [Fam2.1 aminoacylation ribozyme variant]	8.97	2.06	4.43	2.45	3.99	4.96
AUUACCCUGAUAAUCGAGUGA [Fam2.1 aminoacylation ribozyme variant]	39.8	4.12	9.64	4.59	10.3	11.1
AUUACCCUGAUCAUCGAGAGA [Fam2.1 aminoacylation ribozyme variant]	0.905	1.02	0.577	0.913	0.765	0.629
AUUACCCUGAUCAUCGAGGGA [Fam2.1 aminoacylation ribozyme variant]	0.999	1.09	1.02	1.21	1.87	2.33
AUUACCCUGCGCAUCGAGUGA [Fam2.1 aminoacylation ribozyme variant]	20.5	2.03	5.86	2.56	5.76	6.75
AUUACCCUGCUCAACGAGUGA [Fam2.1 aminoacylation ribozyme variant]	24.7	2.33	5.64	3.25	5.59	6.69
AUUACCCUGCUCACCGAGUGA [Fam2.1 aminoacylation ribozyme variant]	39	2.76	5.34	3.35	6.12	6.29
AUUACCCUGCUCAUCGACUGA [Fam2.1 aminoacylation ribozyme variant]	0.34	0.856	0.687	0.82	0.475	0.534
AUUACCCUGCUCAUCGAGAGA [Fam2.1 aminoacylation ribozyme variant]	0.77	0.834	0.805	0.975	0.702	0.698
AUUACCCUGCUCAUCGAGUGU [Fam2.1 aminoacylation ribozyme variant]	1.08	0.991	1	0.78	0.916	1.36
AUUACCCUGGACAUAGAGUGA [Fam2.1 aminoacylation ribozyme variant]	100	6.45	15.5	6.12	15	15.6
AUUACCCUGGACAUCGAGCGA [Fam2.1 aminoacylation ribozyme variant]	1.24	1.24	1.45	1.07	1.26	1.34
AUUACCCUGGACAUCGAGUGU [Fam2.1 aminoacylation ribozyme variant]	5.95	1.51	3.35	2.66	3.35	4.38
AUUACCCUGGCCACCGAGUGA [Fam2.1 aminoacylation ribozyme variant]	35.6	2.92	4.99	3.34	5.59	3.89
AUUACCCUGGCCAUAGAGUGA [Fam2.1 aminoacylation ribozyme variant]	5.34	2.6	4.15	2.51	4.73	6.32
AUUACCCUGGCCAUCAAGUGA [Fam2.1 aminoacylation ribozyme variant]	1.1	0.983	1.07	1.01	0.968	1.67
AUUACCCUGGCCAUCGAGUGA [Fam2.1 aminoacylation ribozyme variant]	11.7	2.05	3.27	2.24	3.27	3.94
AUUACCCUGGCCAUCGAGUGU [Fam2.1 aminoacylation ribozyme variant]	2.1	1.42	3.06	1.93	2.04	2.51
